Experimental data reported in the supplement of paper PMC5998384.

Columns and labels:
[1] = test system: HeLa Kyoto; test: thermal stability score vs G1/S (z-score of summed log2 fold changes over temperatures); higher = more thermally stable than in G1/S
[2] = test system: HeLa Kyoto; test: solubility in G1/S (NP-40 vs SDS abundance) (log2 ratio); higher = more soluble; conditions: cell cycle stage: G1/S
[3] = test system: HeLa Kyoto; test: melting temperature (median over replicates), in situ; higher = more thermally stable
[4] = test system: HeLa Kyoto; test: solubility change mitosis vs G1/S (difference of NP-40 vs SDS log2 ratios) (log2 ratio difference); higher = more soluble in mitosis
[5] = cell cycle stage: early G1 (4.5 h after nocodazole release)
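Wherever melting temperature (median over replicates), in situ is given: HeLa Kyoto cells synchronized by double thymidine or nocodazole block, proteins quantified by TMT10plex mass spectrometry, three independent biological replicates.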
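Wherever solubility change mitosis vs G1/S (difference of NP-40 vs SDS log2 ratios) is given: synchronized HeLa Kyoto cells (double thymidine block for G1/S, nocodazole release for mitosis), protein amounts in NP-40 versus SDS lysates quantified by mass spectrometry, three biological replicates.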
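Wherever solubility in G1/S (NP-40 vs SDS abundance) is given: HeLa Kyoto cells arrested at G1/S by double thymidine block, proteins quantified by TMT10plex mass spectrometry in mild NP-40 versus SDS extracts, three biological replicates.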
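Wherever thermal stability score vs G1/S (z-score of summed log2 fold changes over temperatures) is given: synchronized HeLa Kyoto cells, proteins quantified by TMT10plex mass spectrometry, three biological replicates, mitosis taken 0.5 h after nocodazole release, G1/S directly after double thymidine block.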

Sequence	thermal stability score [1, 5]	thermal stability score ([1]; cell cycle stage: mitosis)	solubility in G1/S (log2) [2]	melting temperature ([3]; cell cycle stage: G1/S) [°C]	melting temperature ([3]; cell cycle stage: mitosis) [°C]	solubility change mitosis (log2) [4]
MKENKENSSPSVTSANLDHTKPCWYWDKKDLAHTPSQLEGLDPATEARYRREGARFIFDVGTRLGLHYDTLATGIIYFHRFYMFHSFKQFPRYVTGACCLFLAGKVEETPKKCKDIIKTARSLLNDVQFGQFGDDPKEEVMVLERILLQTIKFDLQVEHPYQFLLKYAKQLKGDKNKIQKLVQMAWTFVNDSLCTTLSLQWEPEIIAVAVMYLAGRLCKFEIQEWTSKPMYRRWWEQFVQDVPVDVLEDICHQILDLYSQGKQQMPHHTPHQLQQPPSLQPTPQVPQVQQSQPSQSSEPSQPQQKDPQQPAQQQQPAQQPKKPSPQPSSPRQVKRAVVVSPKEENKAAEPPPPKIPKIETTHPPLPPAHPPPDRKPPLAAALGEAEPPGPVDATDLPKVQIPPPAHPAPVHQPPPLPHRPPPPPPSSYMTGMSTTSSYMSGEGYQSLQSMMKTEGPSYGALPPAYGPPAHLPYHPHVYPPNPPPPPVPPPPASFPPPAIPPPTPGYPPPPPTYNPNFPPPPPRLPPTHAVPPHPPPGLGLPPASYPPPAVPPGGQPPVPPPIPPPGMPPVGGLGRAAWMR [CCNK]	0.297	1.83	-0.035	52.9	52	0.0659
MAALVRPARFVVRPLLQVVQAWDLDARRWVRALRRSPVKVVFPSGEVVEQKRAPGKQPRKAPSEASAQEQREKQPLEESASRAPSTWEESGLRYDKAYPGDRRLSSVMTIVKSRPFREKQGKILLEGRRLISDALKAGAVPKMFFFSRLEYLKELPVDKLKGVSLIKVKFEDIKDWSDLVTPQGIMGIFAKPDHVKMTYPKTQLQHSLPLLLICDNLRDPGNLGTILRSAAGAGCSKVLLTKGCVDAWEPKVLRAGMGAHFRMPIINNLEWETVPNYLPPDTRVYVADNCGLYAQAEMSNKASDHGWVCDQRVMKFHKYEEEEDVETGASQDWLPHVEVQSYDSDWTEAPAAVVIGGETYGVSLESLQLAESTGGKRLLIPVVPGVDSLNSAMAASILLFEGKRQLRGRAEDLSRDRSYH [RNMTL1]	-0.281	-1.34	-0.452	53.2	52.1	0.163
MAKMEVKTSLLDNMIGVGDMVLLEPLNEETFINNLKKRFDHSEIYTYIGSVVISVNPYRSLPIYSPEKVEEYRNRNFYELSPHIFALSDEAYRSLRDQDKDQCILITGESGAGKTEASKLVMSYVAAVCGKGAEVNQVKEQLLQSNPVLEAFGNAKTVRNDNSSRFGKYMDIEFDFKGDPLGGVISNYLLEKSRVVKQPRGERNFHVFYQLLSGASEELLNKLKLERDFSRYNYLSLDSAKVNGVDDAANFRTVRNAMQIVGFMDHEAESVLAVVAAVLKLGNIEFKPESRVNGLDESKIKDKNELKEICELTGIDQSVLERAFSFRTVEAKQEKVSTTLNVAQAYYARDALAKNLYSRLFSWLVNRINESIKAQTKVRKKVMGVLDIYGFEIFEDNSFEQFIINYCNEKLQQIFIELTLKEEQEEYIREDIEWTHIDYFNNAIICDLIENNTNGILAMLDEECLRPGTVTDETFLEKLNQVCATHQHFESRMSKCSRFLNDTSLPHSCFRIQHYAGKVLYQVEGFVDKNNDLLYRDLSQAMWKASHALIKSLFPEGNPAKINLKRPPTAGSQFKASVATLMKNLQTKNPNYIRCIKPNDKKAAHIFNEALVCHQIRYLGLLENVRVRRAGYAFRQAYEPCLERYKMLCKQTWPHWKGPARSGVEVLFNELEIPVEEYSFGRSKIFIRNPRTLFKLEDLRKQRLEDLATLIQKIYRGWKCRTHFLLMKKSQIVIAAWYRRYAQQKRYQQTKSSALVIQSYIRGWKARKILRELKHQKRCKEAVTTIAAYWHGTQARRELRRLKEEARNKHAIAVIWAYWLGSKARRELKRLKEEARRKHAVAVIWAYWLGLKVRREYRKFFRANAGKKIYEFTLQRIVQKYFLEMKNKMPSLSPIDKNWPSRPYLFLDSTHKELKRIFHLWRCKKYRDQFTDQQKLIYEEKLEASELFKDKKALYPSSVGQPFQGAYLEINKNPKYKKLKDAIEEKIIIAEVVNKINRANGKSTSRIFLLTNNNLLLADQKSGQIKSEVPLVDVTKVSMSSQNDGFFAVHLKEGSEAASKGDFLFSSDHLIEMATKLYRTTLSQTKQKLNIEISDEFLVQFRQDKVCVKFIQGNQKNGSVPTCKRKNNRLLEVAVP [MYO1B]	-0.836	-0.507	-0.528	50.5	50.1	-0.0354
MSEREERRFVEIPRESVRLMAESTGLELSDEVAALLAEDVCYRLREATQNSSQFMKHTKRRKLTVEDFNRALRWSSVEAVCGYGSQEALPMRPAREGELYFPEDREVNLVELALATNIPKGCAETAVRVHVSYLDGKGNLAPQGSVPSAVSSLTDDLLKYYHQVTRAVLGDDPQLMKVALQDLQTNSKIGALLPYFVYVVSGVKSVSHDLEQLHRLLQVARSLFRNPHLCLGPYVRCLVGSVLYCVLEPLAASINPLNDHWTLRDGAALLLSHIFWTHGDLVSGLYQHILLSLQKILADPVRPLCCHYGAVVGLHALGWKAVERVLYPHLSTYWTNLQAVLDDYSVSNAQVKADGHKVYGAILVAVERLLKMKAQAAEPNRGGPGGRGCRRLDDLPWDSLLFQESSSGGGAEPSFGSGLPLPPGGAGPEDPSLSVTLADIYRELYAFFGDSLATRFGTGQPAPTAPRPPGDKKEPAAAPDSVRKMPQLTASAIVSPHGDESPRGSGGGGPASASGPAASESRPLPRVHRARGAPRQQGPGTGTRDVFQKSRFAPRGAPHFRFIIAGRQAGRRCRGRLFQTAFPAPYGPSPASRYVQKLPMIGRTSRPARRWALSDYSLYLPL [TAF6L]	0.603	1.02	0.0555	49.3	49.5	-0.115
MACGFRRAIACQLSRVLNLPPENLITSISAVPISQKEEVADFQLSVDSLLEKDNDHSRPDIQVQAKRLAEKLRCDTVVSEISTGQRTVNFKINRELLTKTVLQQVIEDGSKYGLKSELFSGLPQKKIVVEFSSPNVAKKFHVGHLRSTIIGNFIANLKEALGHQVIRINYLGDWGMQFGLLGTGFQLFGYEEKLQSNPLQHLFEVYVQVNKEAADDKSVAKAAQEFFQRLELGDVQALSLWQKFRDLSIEEYIRVYKRLGVYFDEYSGESFYREKSQEVLKLLESKGLLLKTIKGTAVVDLSGNGDPSSICTVMRSDGTSLYATRDLAAAIDRMDKYNFDTMIYVTDKGQKKHFQQVFQMLKIMGYDWAERCQHVPFGVVQGMKTRRGDVTFLEDVLNEIQLRMLQNMASIKTTKELKNPQETAERVGLAALIIQDFKGLLLSDYKFSWDRVFQSRGDTGVFLQYTHARLHSLEETFGCGYLNDFNTACLQEPQSVSILQHLLRFDEVLYKSSQDFQPRHIVSYLLTLSHLAAVAHKTLQIKDSPPEVAGARLHLFKAVRSVLANGMKLLGITPVCRM [RARS2]	-0.261	-0.261	-0.144	51.7	50.8	-0.141
MAGTVVLDDVELREAQRDYLDFLDDEEDQGIYQSKVRELISDNQYRLIVNVNDLRRKNEKRANRLLNNAFEELVAFQRALKDFVASIDATYAKQYEEFYVGLEGSFGSKHVSPRTLTSCFLSCVVCVEGIVTKCSLVRPKVVRSVHYCPATKKTIERRYSDLTTLVAFPSSSVYPTKDEENNPLETEYGLSVYKDHQTITIQEMPEKAPAGQLPRSVDVILDDDLVDKAKPGDRVQVVGTYRCLPGKKGGYTSGTFRTVLIACNVKQMSKDAQPSFSAEDIAKIKKFSKTRSKDIFDQLAKSLAPSIHGHDYVKKAILCLLLGGVERDLENGSHIRGDINILLIGDPSVAKSQLLRYVLCTAPRAIPTTGRGSSGVGLTAAVTTDQETGERRLEAGAMVLADRGVVCIDEFDKMSDMDRTAIHEVMEQGRVTIAKAGIHARLNARCSVLAAANPVYGRYDQYKTPMENIGLQDSLLSRFDLLFIMLDQMDPEQDREISDHVLRMHRYRAPGEQDGDAMPLGSAVDILATDDPNFSQEDQQDTQIYEKHDNLLHGTKKKKEKMVSAAFMKKYIHVAKIIKPVLTQESATYIAEEYSRLRSQDSMSSDTARTSPVTARTLETLIRLATAHAKARMSKTVDLQDAEEAVELVQYAYFKKVLEKEKKRKKRSEDESETEDEEEKSQEDQEQKRKRRKTRQPDAKDGDSYDPYDFSDTEEEMPQVHTPKTADSQETKESQKVELSESRLKAFKVALLDVFREAHAQSIGMNRLTESINRDSEEPFSSVEIQAALSKMQDDNQVMVSEGIIFLI [MCM3]	1.52	2.24	0.00594	51.5	51.2	-0.0464
MSGGLLKALRSDSYVELSQYRDQHFRGDNEEQEKLLKKSCTLYVGNLSFYTTEEQIYELFSKSGDIKKIIMGLDKMKKTACGFCFVEYYSRADAENAMRYINGTRLDDRIIRTDWDAGFKEGRQYGRGRSGGQVRDEYRQDYDAGRGGYGKLAQNQ [NCBP2]	-0.145	-1.78	-0.118	51.4	51.8	0.26
